Key:
HER2 (cell surface) [1] = target: T1, HER2 (cell surface) (human, UniProt P04626); test: FACS, A431 cells
HER2 (cell surface) [2] = target: T1, HER2 (cell surface); test: FACS, AU565 cells

B1: 098 (PC1014-098) (antibody, V domains shown)
VH: EVQLLESGGGLVQPGGSLRLSCAASGFTFSNYGMSWVRQAPGKGLEWVSAISGSAYSTYYADSVKGRFTISRDNSKNTLWLQMNSLRAEDTAVYYCAKAHYHGSGSYYTLFDYWGQGTLVTVSS
VL: DIQMTQSPSSLSASVGDRVTITCRASQGISSWLAWYQQKPEKAPKSLIYAASSLQSGVPSRFSGSGSGTDFTLTISSLQPEDFATYYCQQYNSYPYTFGQGTKLEIK
- EC50 (HER2 (cell surface) [1]): 0.068 mg/L
- EC50 (HER2 (cell surface) [2]): 0.336 mg/L

From patent US11046771 (dated 2021)
